For assay [1], the target named is T1, recombinant murine MerTK extracellular domain (mouse, UniProt Q60805 19-497).
T1 construct: also called Mouse MerTK; murine MerTK ECD; not shown: polyHis or TEVS/Thrombin/murine IgG2a-Fc tag
T1 sequence: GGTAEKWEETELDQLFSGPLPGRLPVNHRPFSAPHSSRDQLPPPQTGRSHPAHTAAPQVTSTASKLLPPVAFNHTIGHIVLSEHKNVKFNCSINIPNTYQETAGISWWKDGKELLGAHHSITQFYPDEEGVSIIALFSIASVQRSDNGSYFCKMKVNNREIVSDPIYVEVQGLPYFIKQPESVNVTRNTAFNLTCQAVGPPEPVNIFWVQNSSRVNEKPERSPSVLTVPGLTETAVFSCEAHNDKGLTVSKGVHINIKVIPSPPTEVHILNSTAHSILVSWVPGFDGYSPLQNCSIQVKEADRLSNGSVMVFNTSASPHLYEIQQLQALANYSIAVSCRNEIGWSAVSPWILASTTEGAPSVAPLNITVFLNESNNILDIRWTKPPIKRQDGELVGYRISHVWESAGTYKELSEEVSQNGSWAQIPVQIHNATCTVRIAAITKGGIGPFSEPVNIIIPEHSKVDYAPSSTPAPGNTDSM
Briefly: SPR Carterra LSA, Ab immobilised. The method in brief:
(§1)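 Surface plasmon resonance on a Carterra LSA measured affinity of immobilized antibodies for human, cynomolgus or mouse MerTK ectodomain diluted in HBS-TE with 0.5 mg/ml BSA. Analytes flowed over the full array, surfaces were regenerated with Protein A/G Elution Buffer plus 1M NaCl or 10 mM Glycine pH 2.5, and spots binding under 25 RU were discarded before kinetic fitting.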

Assay [2] concerns the target T2, recombinant cynomolgus MerTK extracellular domain (cynomolgus, UniProt Q12866 21-505 (human entry)).
T2 construct: also called cyno MerTK ECD; not shown: polyHis or TEVS/Thrombin/murine IgG2a-Fc tag
T2 chain: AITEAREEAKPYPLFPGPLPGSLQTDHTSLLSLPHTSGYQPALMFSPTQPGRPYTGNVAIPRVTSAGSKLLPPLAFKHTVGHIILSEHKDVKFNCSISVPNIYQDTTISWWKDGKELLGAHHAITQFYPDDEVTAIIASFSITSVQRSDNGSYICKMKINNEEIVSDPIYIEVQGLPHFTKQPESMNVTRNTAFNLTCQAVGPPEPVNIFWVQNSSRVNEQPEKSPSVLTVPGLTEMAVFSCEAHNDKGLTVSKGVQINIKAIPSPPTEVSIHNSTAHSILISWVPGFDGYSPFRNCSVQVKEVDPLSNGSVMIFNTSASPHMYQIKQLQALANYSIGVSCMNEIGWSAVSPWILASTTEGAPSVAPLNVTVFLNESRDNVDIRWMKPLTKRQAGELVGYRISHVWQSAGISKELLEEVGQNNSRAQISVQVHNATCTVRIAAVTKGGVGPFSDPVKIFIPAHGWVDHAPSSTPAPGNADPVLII
Briefly: SPR Carterra LSA, Ab immobilised. A digest of the protocol:
as §1

Changes are numbered by the printed parent chain.

B1: MTK-203 (antibody, human IgG1, V domains shown)
VH: QVQLQQPGAELVKPGASVKVSCKASGYTFTNYWMHWVKQRPGQGLEWIGRIHPFDTETNDNQKFKGKATLTVDKSSSTAYMQLSSLTSEDSAVYYCVIPANGGFAYWGQGTLVTVSA
VL: ETTVTQSPASLSVATGEKVTIRCITSTDIGDDMNWYQQKPGEPPKVLISEGNSLRPGVPSRFSSSGYGTDFVFTIENTLSEDVADYFCLQSDNLPLTFGSGTKLEIK
With B1, the Kd in assay [1] was determined as 400 nM.

B2: MTK-225 (antibody, human IgG1, V domains shown)
VH: EVQLQQSGPELVKPGASVKIFCKASGYTFTAYNMDWVKQSHGKSLEWIGDINPNNGGTIYNQKFKGKATLTVDKSSSTAYMELRSLTSEDTAVYYCARRRRYGNTYYWYFDVWGTGTTVTVSS
VL: DIQMTQSPASLSVSVGETVTITCRASENIYSSLAWYQQKQGKSPQLLVYAATNLADGVPSRFSGSGSGTQFYLKINGLQSEDFGSYYCQHFWGTSYTFGGGTKLEIK
For B2, in assay [2], the Kd is 80 nM.

B3: MTK-223 (antibody, human IgG1, V domains shown)
VH: DVQLQESGPGLVKPSQSLSLTCSVTGYSITSGYYWNWIRQFPGNKLEWMGYISYDGTNNYNPSLKNRISITRDTSENQFFLKLNSVTTEDTATYFCVRGAGYWGQGTTLTVSS
VL: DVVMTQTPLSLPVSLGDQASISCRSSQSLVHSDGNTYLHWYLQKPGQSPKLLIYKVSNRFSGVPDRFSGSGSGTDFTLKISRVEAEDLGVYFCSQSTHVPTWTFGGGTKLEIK
For the molecule B3, in assay [2], the Kd turned out to be 190 nM.

B4: MTK-220 (antibody, V domains shown)
VH: EVQLVESGGGLVKPGGSLKLSCAASGFTFSDYGMHWVRQAPEKGLEWVAFISGGSGTIYYEDTVKGRFTISRDNAKNTLFLQMTSLRSEDTAMYYCTRGGNYFDYWGQGTTLTVSS
VL: NIMLTQSPSSLAVSAGEKVTMTCKSSQSVLYSSNQKNYLAWYQQKPGQSPKLLIYWASTRESGVPDRFTGSGSGTDFTLTISNVQAEDLAVYYCHQYFSSWTFGGGTKLEIK
On to B4, for which the Kd in assay [2] was found to be 410 nM.

B5: MTK-204 (antibody, human IgG1, V domains shown)
VH: B4 VH with F50Y, G53S, S55T, G56S, T97A, N101L, Y102L
VL: B4 VL with L4M, T22S, Y55Q, G74E, S82R, N83S
As to B5, the Kd in assay [2] stood at 680 nM.

B6: MTK-202 (antibody, human IgG1, V domains shown)
VH: EVQLVESGGGLVKPGGSLKLSCAASGFTFSDFGMHWVRQVPEKGLEWVAFISGGSNTIYYTDTVKGRFTISRDNAKNTLFLQMTSLRSEDTAMYYCVRNGNSFAYWGQGTLVTVSA
VL: B4 VL with L4M, T22N, V84I, V91I, S99F
For the molecule B6, the Kd in assay [2] was 160 nM.

B7: MTK-206 (antibody, human IgG1, V domains shown)
VH: QVQLQQSGAELARPGASVKMSCKASGYTFTSYTMHWVKQRPGQGLEWIGYINPSSGYIKNSQKFKDKATLTADKSSSTAYMQLSSLTSEDSAVYYCARTVYGYYGSSPDYWGQGTTLTVSS
VL: DIQMTQSPSSLSASLGERVSLTCRASQDIGSNLNWLQQEPDGTIKRLIYATSSLESGVPKRFSGSRSGSDYSLTISSLESEDFVDYYCLQYDSSPWTFGGGTKLEIK
With B7, in assay [2], the Kd was determined as 3700 nM. Besides, the binding result in assay [1] was “no binding (tested: analyte up to 600 nM)”.

B8: MTK-212 (antibody, human IgG1, V domains shown)
VH: QVQLQQSGPELVKPGASVKISCKASGYAFSSSWVNWVKQRPGKGLEWIGRIYPGDGDSNYNGNFKGKATLTADKSSNTAYLQLSSLTSEDSAVYFCARKSHFIYYTLDYWGQGTPVTVSS
VL: DIVMTQSHKFKSTSVGDRVSIACKASQDVGTSVAWYQQKPGKSPKLLIYWASSRHTGVPDRFTGSGSGTDFTLTISNVQSEDLTDYFCQQYSTYPYTFGGGTKLEIK
As for B8, the Kd turned out to be 1500 nM in assay [2] and 11 nM in assay [1].

B9: MTK-229 (antibody, human IgG1, V domains shown)
VH: QVQLQQSGPELVKPGASVKISCKASGYEFSRSWMNWVKQRPGKGLEWIGRIYPGDGDTNYKGKLKGQATLTADKSSSTAYMQLSSLTFEDSAVYFCARGGGYYYDSRYEGFVYWGQGTVVTVSA
VL: QIVLTQSPAIMSASPGEEVTMTCSASSSVSYMHWYQQKSGTSPKRWIYDTSKLASGVSGRFSGSGSGTSYSLTISSMEAEDAATYYCQQWSSNPPITFGAGTKLELK
Take B9: in assay [2], the Kd was determined as 52 nM.

B10: MTK-228 (antibody, human IgG1, V domains shown)
VH: QDQLQQSGPELVKPGASVKISCKASGYSFTSYYIHWVKQRPGQGLEWVGWIFPGNGNTKYNERFKGKATLTADTSSSTAYMQLSSLTSEDSAVYYCARLGLIYALDYWGQGTSVTVSS
VL: DAVMTQTPLSLPVSLGDQASISCRSSQSLENSNGNTYLHWYLQKPGQSPQLLIYRVSNRFSGVLDRFSGSGSGTDFTLKISRVEAEDLGVYFCLQVTHVPFTFGSGTKLEIK
For B10, the Kd in assay [2] came out at 46 nM; in assay [1], 1.7 nM.

B11: MTK-218 (antibody, human IgG1, V domains shown)
VH: B10 VH with D2V, A16T, E46D, V48I, G56R, K59Q, R63K
VL: B10 VL with N35H, L64Q
For B11, the Kd in assay [2] was determined as 85 nM; in assay [1] it was 6.2 nM.

B12: MTK-226 (antibody, human IgG1, V domains shown)
VH: B10 VH with D2V, V48I, R63N, K65R
VL: B10 VL with N31S, K79Q
As for B12, the Kd in assay [2] stood at 47 nM; in assay [1], 1.8 nM.

B13: MTK-215 (antibody, human IgG1, V domains shown)
VH: EVQLVESGGGLVKPGGSLKLSCAASGFIFSDYGMHWVRQAPEKGLEWVAYISSGSSTIYYGDTVKGRFTISRDNAKNTLFLQMTSLRSEDTAMYYCAKGGRYGAMDYWGHGTSVTVSS
VL: DIVLTQSPATLSVTPGDSVSLSCRASQSISNNLHWYQQKSHESPRLLIKNPSQSISGIPSRFGARGSGTDFTLIINSVETEDLGVYFCQQSNSWPFTFGSGTKLEIK
For the molecule B13, in assay [2], the dissociation constant (Kd) is 1600 nM.

B14: MTK-210 (antibody, human IgG1, V domains shown)
VH: QVQLQQSGPELVKPGASVKISCKASDYEFSRSWMNWVKQRPGKGLEWIGRIYPGDGDTNYNGKFKGKATLTADKSSNTAYMQLNSLTSEDSAVYFCARKGGYYYSISNYFDYWGQGTTLTVSS
VL: QIVLTQSPAIMSASPGVKVTMTCSASSSVSYMHWYQQKPGSSPRLLIYDTSNLASGVPVRFSGSGSGTSYSLTISRMEAEDAATYYCQQWSSYPPYTFGGGTKLEIK
With B14, in assay [2], the Kd was found to be 37 nM. Moreover, the binding result in assay [1] is listed as “no binding (tested: analyte up to 600 nM)”.

B15: MTK-227 (antibody, human IgG1, V domains shown)
VH: EVKLVESGGGLVQPGGSLSLSCAASGFTFTDNYMTWVRQPPGKALEWLGFSRNKANGYTTEYSASVKGRFTISRDSSQSILYLQMNALRAEDSGTYYCARFPPHYYAGGYFDVWGTGTTVTVSS
VL: DIQMTQSPASLSASVGETVTITCRASENIYSYLAWYQQKQGKSPQLLVYNAKTLAEGVPSRFSGSGSGTQFSLKINSLQPADFGSYYCQHYYRTPPTFGGGTKLEIK
In the case of B15, the Kd in assay [2] came out at 78 nM; in assay [1] it was 8.3 nM.

B16: MTK-230 (antibody, human IgG1, V domains shown)
VH: EVQLQQSGPELVKPGASVRIPCKASGYTFSDYNMDWVKQSHGKSLEWIGNINPNIGGTIYSQKFKGKATLTVDKSSSTAYMELRSLTSEDTAVYYCARGDYGFASWGQGTLVTVSA
VL: DIVLTQSPASLTVSLGQRATISCRASRSVSTSGYSYMHWYQQKPGQPPKLLIYLASNLESGVPARFSGSRSGTDFTLNIHPVEEEDAATYYCQHSREYPFTFGSGTKLEIK
B16: the dissociation constant (Kd) in assay [1] came out at 29 nM.

B17: MTK-209 (antibody, human IgG1, V domains shown)
VH: QVQLQQPGAELVKPGASVKVSCKASGYTFTNYWIHWVKQRPGQGLEWIGRIHPFDSEPNYNQKFKGKATLTVDKSSSTAYMHLTSLTSEDSAVYYCALASFAYWGQGTLVTVSA
VL: ETTVTQSPASLSMAMGEKATIRCITSTDIDDKMNWYQQKPGKPPKLLISAGNTLRPGVPSRFSSSGYGTDFVLTVENMLSEDVADYYCLQGGALPLTFGSGTKLEIK
For the molecule B17, the Kd in assay [1] was found to be 460 nM.

B18: MTK-219 (antibody, human IgG1, V domains shown)
VH: QVQLQQSGADLMKPGASVKLSCKATGNTFTGYWIEWVKQRPGHGLEWIGEILTGSGSTNYNERFKGKATFTADTSSNTAYMQLSSLTTEDSAIYYCAGSYFTNSWFPYWGQGSLVTVSA
VL: DIVLTQSPASLAVSLGQRATISCRASESVDSYGNSFMHWYQQKPGQPPKLLIYRAYTLESGIPARFSGSGSRTDFTLTINPVEADDVATYYCQQSNEDPRTFGGGTKLEIK
Take B18: the equilibrium dissociation constant (Kd) in assay [2] is 830 nM.

B19: MTK-222 (antibody, human IgG1, V domains shown)
VH: B18 VH with N27Y, T58S, R63K, T74S, Y80F, F101Y, T102S
VL: B18 VL with A9V, N34S, Y56S, T57S, A84T
For B19, in assay [2], the Kd was determined as 130 nM.

For orientation: Kd means the equilibrium constant for the complex coming apart.

(Values after patent publication US20240294650A1 (Alector, published 2024).)
